Experimental findings from patent US12281181 are described below.

Numbered stars: 1 amine (or outer) side, 2 acyl side, 3 side chain; on linkers, the order of the positions; unused ones are H or OH. Bridge positions count the residues as written; N and C are the ends. Square brackets hold non-standard residues; d marks the D form. Ends that are not written are not given here. Trimesoyl = O=C(c1cc(C(=O)[*:2])cc(C(=O)[*:3])c1)[*:1]; 2Nal = N[C@@H](Cc1ccc2ccccc2c1)C(=O)O; Dap = NC[C@H](N)C(=O)O; βAla = NCCC(=O)O

The target of assay [1] is T1, Recombinant GST-NEMO (NEMO(1-196)) (UniProt Q9Y6K9 1-196, biotinylated in the library screen).
T1 construct: range 1-196; Expressed in E. coli BL21(DE3); also called NF-κB essential modulator; IKKγ; not shown: glutathione S-transferase (GST) tag encoded by the pGEX4T3 vector
Briefly: fluorescence anisotropy (FA), direct binding.

For assay [2], the target named is T1, Recombinant GST-NEMO (NEMO(1-196)). Briefly: HTRF competition IC50, alanine scan against peptide 7.
Assay [3] has the same target. Briefly: HTRF competition, GST-NEMO + biotin-IKKβKK/RR(701-745), peptide 0-100 µM.
Assay [4] has the same target. Briefly: HTRF competition IC50 against peptide 7.
Assay [5] addresses NEMO (endogenous, inside cultured cells) (UniProt Q9Y6K9 1-419). Briefly: cell-based or functional assay.
Assay [6] deals with T1, Recombinant GST-NEMO (NEMO(1-196)). Briefly: HTRF competition IC50, peptide 7 against peptide 6.
Assay [7] shares this target. Briefly: HTRF competition, GST-NEMO + biotin-IKKβKK/RR(701-745).

T1 sequence (Q9Y6K9 1-196): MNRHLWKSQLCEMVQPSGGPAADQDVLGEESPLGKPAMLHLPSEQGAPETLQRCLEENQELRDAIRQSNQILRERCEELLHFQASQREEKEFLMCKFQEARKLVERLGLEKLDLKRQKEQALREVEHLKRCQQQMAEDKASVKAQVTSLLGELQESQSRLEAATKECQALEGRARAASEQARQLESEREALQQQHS
Sequence of NEMO (endogenous, inside cultured cells) (Q9Y6K9 whole entry): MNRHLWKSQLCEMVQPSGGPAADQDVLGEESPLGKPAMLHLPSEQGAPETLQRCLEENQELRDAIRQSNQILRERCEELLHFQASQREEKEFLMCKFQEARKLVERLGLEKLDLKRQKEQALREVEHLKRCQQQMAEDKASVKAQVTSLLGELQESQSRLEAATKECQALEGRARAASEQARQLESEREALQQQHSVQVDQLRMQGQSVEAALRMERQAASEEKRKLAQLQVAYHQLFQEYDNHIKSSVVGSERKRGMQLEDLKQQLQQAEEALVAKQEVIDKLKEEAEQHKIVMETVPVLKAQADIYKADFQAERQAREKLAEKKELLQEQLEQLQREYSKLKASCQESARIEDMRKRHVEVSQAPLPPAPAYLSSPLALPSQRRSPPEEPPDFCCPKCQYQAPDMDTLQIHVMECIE

B1: fluorescently labeled peptide 7 (peptide)
peptide: GWIYA[Dap]F[2Nal]R[dR]R[Dap][βAla][βAla]K
modifications: linker (positions not given here) via trimesic acid; not fully specified (bridges); printed as Tm(GWIYA)Δ(FΦRrRΔ)-BBK; also: FITC label, site not given here
As for B1, the Kd in assay [1] was 220 nM.

B2: peptide 13 (peptide)
peptide: GWAYA[Dap]F[2Nal]R[dR]R[Dap][βAla][βAla]K
modifications: linker (positions not given here) via trimesic acid; not fully specified (bridges); printed as Tm(GWAYA)Δ(FΦRrRΔ)-BBK
For B2, the fold decrease in potency against peptide 7 in assay [2] lay within 2 to 3 fold. For the same molecule, the IC50 in assay [3] came out at 1700 nM.

B3: peptide 9 (peptide)
peptide: AGWIY[Dap]F[2Nal]R[dR]R[Dap][βAla][βAla]K
modifications: linker (positions not given here) via trimesic acid; not fully specified (bridges); printed as Tm(AGWIY)Δ(FΦRrRΔ)-BBK
In the case of B3, in assay [3], the IC50 was 2200 nM.

B4: peptide 18 (peptide)
peptide: GWIYA[Dap]F[2Nal]R[dA]R[Dap][βAla][βAla]K
modifications: linker (positions not given here) via trimesic acid; not fully specified (bridges); printed as Tm(GWIYA)Δ(FΦRaRΔ)-BBK
Regarding B4, the IC50 in assay [3] came to 2100 nM.

B5: peptide 21 (peptide)
peptide: GAAAA[Dap]F[2Nal]R[dR]R[Dap][βAla][βAla]K
modifications: linker (positions not given here) via trimesic acid; not fully specified (bridges); printed as Tm(GAAAA)Δ(FΦRrRΔ)-BBK
On to B5, for which, in assay [4], the fold lower NEMO-binding affinity against peptide 7 is above 100 fold.

B6: peptide 19 (peptide)
peptide: GWIYA[Dap]F[2Nal]R[dR]A[Dap][βAla][βAla]K
modifications: linker (positions not given here) via trimesic acid; not fully specified (bridges); printed as Tm(GWIYA)Δ(FΦRrAΔ)-BBK
With B6, the IC50 in assay [3] came out at 1200 nM.

B7: peptide 12 (peptide)
peptide: GAIYA[Dap]F[2Nal]R[dR]R[Dap][βAla][βAla]K
modifications: linker (positions not given here) via trimesic acid; not fully specified (bridges); printed as Tm(GAIYA)Δ(FΦRrRΔ)-BBK
Regarding B7, the fold decrease in potency against peptide 7 in assay [2] lay within 2 to 3 fold. Besides, the IC50 in assay [3] is 3000 nM.

B8: peptide 16 (peptide)
peptide: GWIYA[Dap]FAR[dR]R[Dap][βAla][βAla]K
modifications: linker N-6-12 via Trimesoyl; not fully specified (N-terminus); printed as Tm(GWIYA)Δ(FARrRΔ)-BBK
notes: Alanine-scan variant of peptide 7
B8: in assay [3], the IC50 was found to be 2800 nM.

B9: peptide 5 (peptide)
peptide: GWIY[Dap]F[2Nal]RRR[Dap][dR][βAla]K
modifications: linker N-5-11 via Trimesoyl; not fully specified (N-terminus); printed as Tm(GWIY)Δ(FΦRRRA)-rBK
notes: Bicyclic peptide; D-arginine outside the B ring
Consider B9, for which the IC50 in assay [3] turned out to be 1300 nM.

B10: peptide 4 (peptide)
peptide: GWIY[Dap]F[2Nal]RRR[Dap]R[βAla]K
modifications: linker N-5-11 via Trimesoyl; not fully specified (N-terminus); printed as Tm(GWIY)Δ(FΦRRRA)-RBK
notes: Bicyclic peptide; 4th arginine outside the B ring
As for B10, in assay [3], the IC50 came to 1800 nM.

B11: peptide 17 (peptide)
peptide: GWIYA[Dap]F[2Nal]A[dR]R[Dap][βAla][βAla]K
modifications: linker (positions not given here) via trimesic acid; not fully specified (bridges); printed as Tm(GWIYA)Δ(FΦArRΔ)-BBK
As to B11, the IC50 in assay [3] is 1100 nM.

B12: peptide 7 (peptide)
peptide: GWIYA[Dap]F[2Nal]R[dR]R[Dap][βAla][βAla]K
modifications: linker N-6-12 via Trimesoyl; not fully specified (N-terminus); printed as Tm(GWIYA)Δ(FΦRrRΔ)-BBK
In the case of B12, the “inhibition of TNFα-induced NF-κB activation, luciferase in HEK293(Luc) cells, IC50” value in assay [5] was determined as 10000 nM. Besides, in assay [6], the fold increase in binding affinity against peptide 6 came to 5.9 fold. Moreover, in assay [3], the IC50 worked out at 1000 nM.

For the molecule GWIY[dA][Dap]F[2Nal]R[dR]R[Dap][βAla][βAla]K (linker N-6-12 via Trimesoyl) [peptide 8], the IC50 in assay [3] is 2900 nM.

B13: peptide 14 (peptide)
peptide: GWIAA[Dap]F[2Nal]R[dR]R[Dap][βAla][βAla]K
modifications: linker (positions not given here) via trimesic acid; not fully specified (bridges); printed as Tm(GWIAA)Δ(FΦRrRΔ)-BBK
For the molecule B13, the IC50 in assay [3] was 2800 nM.

B14: peptide 2 (peptide)
peptide: GWIY[Dap]F[2Nal]RRR[Dap][βAla][βAla]K
modifications: linker (positions not given here) via trimesic acid; not fully specified (bridges); printed as Tm(GWIY)Δ(FΦRRRΔ)-BBK
As to B14, the figures for the IC50 in assay [7] and in assay [3] were 3400 to 28000 nM and 3400 nM, respectively.

B15: peptide 15 (peptide)
peptide: GWIYA[Dap]A[2Nal]R[dR]R[Dap][βAla][βAla]K
modifications: linker (positions not given here) via trimesic acid; not fully specified (bridges); printed as Tm(GWIYA)Δ(AΦRrRΔ)-BBK
For B15, the 50% inhibitory concentration (IC50) in assay [3] is 1900 nM.

B16: peptide 3 (peptide)
peptide: GWIY[Dap]F[2Nal]RRRR[Dap][βAla][βAla]K
modifications: linker (positions not given here) via trimesic acid; not fully specified (bridges); printed as Tm(GWIY)Δ(FΦRRRRΔ)-BBK
With B16, the half-maximal inhibitory concentration (IC50) in assay [3] came to 1500 nM.

B17: peptide 20 (peptide)
peptide: GAIAA[Dap]F[2Nal]R[dR]R[Dap][βAla][βAla]K
modifications: linker (positions not given here) via trimesic acid; not fully specified (bridges); printed as Tm(GAIAA)Δ(FΦRrRΔ)-BBK
Consider B17, for which the fold lower NEMO-binding affinity against peptide 7 in assay [4] worked out at 16 fold. In addition, the IC50 in assay [3] was determined as 16000 nM.

B18: peptide 11 (peptide)
peptide: AWIYA[Dap]F[2Nal]R[dR]R[Dap][βAla][βAla]K
modifications: linker (positions not given here) via trimesic acid; not fully specified (bridges); printed as Tm(AWIYA)Δ(FΦRrRΔ)-BBK
On to B18, for which the IC50 in assay [3] turned out to be 1200 nM.

B19: peptide 6 (peptide)
peptide: GWIY[Dap]F[2Nal]R[dR]R[Dap][βAla][βAla]K
modifications: linker (positions not given here) via trimesic acid; not fully specified (bridges); printed as Tm(GWIY)Δ(FΦRrRΔ)-BBK
Regarding B19, the IC50 in assay [3] was determined as 5900 nM.

B20: peptide 10 (peptide)
peptide: [dA]GWIY[Dap]F[2Nal]R[dR]R[Dap][βAla][βAla]K
modifications: linker (positions not given here) via trimesic acid; not fully specified (bridges); printed as Tm(aGWIY)Δ(FΦRrRΔ)-BBK
As to B20, in assay [3], the IC50 was 2300 nM.
